Experiments:
[1] = target: T1, Biotinylated human ICOS protein (human, UniProt Q9Y6W8 21-140, limits assumed, biotinylated (sites not given)); test: SPR ProteOn avidity format, biotinylated human ICOS on NLC chip; calculated on-rate
T1 construct: Captured on the NLC chip in the avidity SPR
T1 sequence: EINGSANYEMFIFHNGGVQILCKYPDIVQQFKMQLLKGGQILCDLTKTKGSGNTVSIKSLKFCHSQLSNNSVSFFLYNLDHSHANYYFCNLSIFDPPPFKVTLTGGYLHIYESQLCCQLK
Experimental: Biotinylated human ICOS protein diluted at 7.5 μg/mL in running buffer (1× HBS-EP+ Buffer Technova, cat. No. H8022) was captured on a NLC sensor chip (Bio-Rad, cat No 1765021). The surface was then blocked using biocytin (Sigma Aldrich, cat No B1758) at 1 mg/mL.
The assay was carried out at 25° C.
The buffer injection (i.e. 0 nM) was used to double reference the sensorgrams. […]

[2] = target: T2, mouse ICOS expressed on CHO cells (mouse, UniProt Q9WVS0 21-200); test: Flow cytometry on CHO-S mouse ICOS cells, anti-human IgG AF647, N=2
T2 construct: also called CHO-S cells transfected with mouse ICOS; mICOS
T2 sequence (looked up): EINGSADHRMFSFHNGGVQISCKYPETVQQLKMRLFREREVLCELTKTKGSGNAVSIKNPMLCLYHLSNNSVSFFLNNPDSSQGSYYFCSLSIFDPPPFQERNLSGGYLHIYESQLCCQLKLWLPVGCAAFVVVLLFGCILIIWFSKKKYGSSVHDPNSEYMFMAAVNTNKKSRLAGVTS
Experimental: (§1) CHO—S cells transfected with either human ICOS or mouse ICOS were resuspended in FACS buffer (PBS+1% w/v BSA+0.1% w/v sodium azide) and transferred to a 96-well V-bottom plate (Greiner) at a density of 1×10⁵ cells per well. mAb and mAb² were titrated in FACS buffer, 1 in 3 dilution across 11 points from a starting working concentration of 400 nM. Plates were centrifuged at 300×g for 3 minutes, supernatant discarded and 50 μL mAb or mAb² solution were added to cells and incubated at 4° C. for 1 hour. Cells were washed with 150 μL of PBS and centrifuged at 300×g for 3 minutes, supernatant was discarded and cell pellet resuspended in 150 μL PBS added. This wash step was repeated twice. Bound mAb or mAb² was detected by addition of 50 μL of anti-human 647 (Jackson ImmunoResearch) diluted to 3 ug/ml in FACS buffer. Cells were incubated for 1 hour at 4° C. in the dark. Cells were washed with 150 μL of PBS and centrifuged at 300 g for 3 minutes, supernatant was discarded and cell pellet resuspended in 150 μL PBS added. This wash step was repeated twice. Cells were fixed with 25 μL 4% v/v paraformaldehyde, incubated for 20 minutes at 4° C., cells were pelleted by centrifugation at 300×g and the supernatant discarded. […] AlexaFluor 647 signal intensity (geometric mean) was measured by flow cytometry using a Beckman Coulter CytoFLEX instrument.

[3] = target: T3, mouse ICOS-mFc (Chimerigen) (mouse, UniProt Q9WVS0 21-141, limits assumed); test: HTRF, mouse ICOS-mFc, competitor mouse B7-H2-Alexa 647, n3
T3 construct: Bought; also called recombinant mouse ICOS protein; mICOS; not shown: mouse Fc of the bought fusion
T3 sequence: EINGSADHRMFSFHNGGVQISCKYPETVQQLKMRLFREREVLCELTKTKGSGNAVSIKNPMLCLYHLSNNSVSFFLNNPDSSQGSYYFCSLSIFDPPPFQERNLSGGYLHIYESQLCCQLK
Experimental: 5 μl of human ICOS-mFc (Chimerigen) at 20 nM (5 nM final) or 5 ul of mouse ICOS-mFc (Chimerigen) at 4 nM (1 nM final) were added to relevant assay wells. Plate was incubated for 1 hour (hr) at room temperature (RT).
After incubation, assay was read on Envision plate reader (Perkin Elmer) using a standard HTRF protocol. 620 nm and 665 nm channel values were exported to Microsoft Excel and % Delta-F and % Neutralisation calculations performed. Titration curves and IC50 values [M] were plotted using Graphpad (Prism). IC50 values were calculated by first transforming the data using equation X=Log(X). The transformed data was then fitted using nonlinear regression, using fitting algorithm, log (inhibitor) vs. response—variable slope (four parameters).

[4] = target: T4, human ICOS expressed on cells (human, UniProt Q9Y6W8 21-199); test: cell-based or functional assay
T4 sequence: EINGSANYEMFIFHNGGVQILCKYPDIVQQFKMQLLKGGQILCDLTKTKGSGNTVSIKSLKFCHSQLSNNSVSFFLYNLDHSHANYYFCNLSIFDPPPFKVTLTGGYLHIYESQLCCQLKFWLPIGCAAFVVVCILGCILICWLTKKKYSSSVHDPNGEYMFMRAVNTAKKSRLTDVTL

[5] = target: T2, mouse ICOS expressed on CHO cells; test: Flow cytometry on CHO-S mouse ICOS cells, anti-human IgG AF647, mean
Experimental: as §1

B1: STIM003 (antibody, human IgG1, kappa)
heavy: not shown
light: EIVLTQSPGTLSLSPGERATLSCRASQSVSRSYLAWYQQKRGQAPRLLIYGASSRATGIPDRFSGDGSGTDFTLSISRLEPEDFAVYYCHQYDMSPFTFGPGTKVDIKRTVAAPSVFIFPPSDEQLKSGTASVVCLLNNFYPREAKVQWKVDNALQSGNSQESVTEQDSKDSTYSLSSTLTLSKADYEKHKVYACEVTHQGLSSPVTKSFNRGEC
notes: Anti-ICOS monospecific antibody, tested as human IgG1; also called STIM003 monoclonal IgG1 antibody
Binder B1 has a kon [1] of 267000 M⁻¹ s⁻¹, an EC50 [2] of 2.19 nM and an IC50 [3] of 0.11 nM. For the same binder, the “EC50 of ADCC (specific dye release), ICOS-transfected CCRF-CEM + NK cells, Donor 326” value [4] was 0.0212 nM, the “EC50 of ADCC (specific dye release), ICOS-transfected CCRF-CEM + NK cells, Donor 334” value [4] was 0.0037 nM and the “EC50 of ADCC (specific dye release), ICOS-transfected CCRF-CEM + NK cells, Donor 341” value [4] was 0.0067 nM. For the same binder, the “EC50 of ADCC (specific dye release), ICOS-transfected CCRF-CEM + NK cells, column 'Median'” value [4] was 0.0105 nM and the EC50 [5] was 5.42 nM.

B2: STIM001 (antibody, human IgG1, kappa)
heavy: not shown
light: DIVMTQSPLSLPVTPGEPASISCRSSQSLLHSNEYNYLDWYLQKPGQSPQLLIFLGSNRASGVPDRFSGSGSGTDFTLKITRVEAEDVGIYYCMQSLQTPLTFGGGTKVEIKRTVAAPSVFIFPPSDEQLKSGTASVVCLLNNFYPREAKVQWKVDNALQSGNSQESVTEQDSKDSTYSLSSTLTLSKADYEKHKVYACEVTHQGLSSPVTKSFNRGEC
notes: Anti-ICOS monospecific antibody, tested as human IgG1; also called STIM001 monoclonal IgG1 antibody
B2 showed a kon [1] of 7990 M⁻¹ s⁻¹, an EC50 [2] of 5.06 nM and an IC50 [3] of 9.25 nM. The “EC50 of ADCC (specific dye release), ICOS-transfected CCRF-CEM + NK cells, Donor 326” value [4] was 0.0426 nM, the “EC50 of ADCC (specific dye release), ICOS-transfected CCRF-CEM + NK cells, Donor 334” value [4] was 0.0205 nM and the “EC50 of ADCC (specific dye release), ICOS-transfected CCRF-CEM + NK cells, Donor 341” value [4] was 0.0076 nM. The “EC50 of ADCC (specific dye release), ICOS-transfected CCRF-CEM + NK cells, column 'Median'” value [4] was 0.0236 nM and the EC50 [5] was 16.9 nM.

— patent US20240343810A1 (published 2024)
